{"source": "paper PMC6669920", "about": "“Identification of a basal system for unwinding a bacterial chromosome origin”", "key": {"DnaA wild-type [1]": {"target": "T1, DnaA wild-type (Bacillus subtilis, UniProt P05648 1-446)", "assay": "EMSA; 1 mM ADP; up to 250 nM DnaA; EMSA: 25 nM scaffold, 0-250 nM DnaA, 10 mM HEPES-KOH pH 8, 100 mM potassium glutamate, 1 mM magnesium acetate, 30% glycerol, 10% DMSO, 1 mM ADP or ATP, 20°C 2 h; 6% PAGE in 45 mM Tris, 45 mM boric acid, 5 mM MgCl2", "conditions": "protein: recombinant; tags: N-terminal His-tag removed with Factor Xa; label: 5' Cy5 on strand 2; blunt; 3 strands, nick between strands 1 and 2, both annealed to strand 3"}, "DnaA wild-type [2]": {"target": "T1, DnaA wild-type", "assay": "EMSA; 1 mM ADP; single shifted species; EMSA: 25 nM scaffold, 0-250 nM DnaA, 10 mM HEPES-KOH pH 8, 100 mM potassium glutamate, 1 mM magnesium acetate, 30% glycerol, 10% DMSO, 1 mM ADP or ATP, 20°C 2 h; 6% PAGE in 45 mM Tris, 45 mM boric acid, 5 mM MgCl2", "conditions": "protein: recombinant; tags: N-terminal His-tag removed with Factor Xa; label: 5' Cy3 on strand 1; 5' Cy5 on strand 2; blunt; 3 strands, nick between strands 1 and 2, both annealed to strand 3"}, "DnaA I190A": {"target": "DnaA I190A (Bacillus subtilis, UniProt P05648 1-446, I190A)", "assay": "EMSA; 1 mM ADP; shift similar to wild-type; EMSA: 25 nM scaffold, 0-250 nM DnaA, 10 mM HEPES-KOH pH 8, 100 mM potassium glutamate, 1 mM magnesium acetate, 30% glycerol, 10% DMSO, 1 mM ADP or ATP, 20°C 2 h; 6% PAGE in 45 mM Tris, 45 mM boric acid, 5 mM MgCl2", "conditions": "protein: recombinant; tags: N-terminal His-tag removed with Factor Xa; label: 5' Cy3 on strand 1; 5' Cy5 on strand 2; blunt; 3 strands, nick between strands 1 and 2, both annealed to strand 3"}}, "data": [{"binder": "ΔDnaA-boxes long scaffold, oHM753/oHM590/oHM754 (dsDNA) DNA 1: CGTTCGGCTGCGGCGAGCGGTATCAGCTCACTCAAAGGCGGTAATACGGCTTCCTTGCTTCCTTGCGGCCC DNA 2: TACTATTACTTCTACTA DNA 3: TAGTAGAAGTAATAGTAGGGCCGCAAGGAAGCAAGGAAGCCGTATTACCGCCTTTGAGTGAGCTGATACCGCTCGCCGCAGCCGAACG", "values": [{"measurement": "binding result", "setting": "DnaA wild-type [1]", "result": "no binding"}]}, {"binder": "Wild-type short scaffold (DnaA-box#6/7 + DnaA-trios), oHM752/oHM590/oHM558 (dsDNA) DNA 1: ACTTATCCACAAATCCACAGGCCC DNA 2: TACTATTACTTCTACTA DNA 3: TAGTAGAAGTAATAGTAGGGCCTGTGGATTTGTGGATAAGT", "values": [{"measurement": "binding result", "setting": "DnaA wild-type [2]", "result": "binds"}, {"measurement": "binding result", "setting": "DnaA I190A", "result": "binds"}]}]}
